Measured values from the supplement of paper PMC10567573.

B1: KRT13 (parent)
chain: YGGGLGGGFGGGFAGGFVDFGACD

Variants of: B1
Assay: protein stability index of a GFP-peptide fusion (GPS, HEK-293T) (PSI 1-6); higher = more stable
Conditions: c terminus: a fixed tail appended
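Note: lentivirally expressed fusions sorted by FACS into six bins by GFP to DsRed ratio, PSI derived from sequencing read proportions per bin multiplied by bin number.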

Variant | protein stability index
YGGRLGGGFGGGFAGGFVDFGACD [G4R] | 2.02
YGGYLGGGFGGGFAGGFVDFGACD [G4Y] | 2.38
YGGQLGGGFGGGFAGGFVDFGACD [G4Q] | 1.68
YGGMLGGGFGGGFAGGFVDFGACD [G4M] | 1.21
YGGVLGGGFGGGFAGGFVDFGACD [G4V] | 1.55
YGGLLGGGFGGGFAGGFVDFGACD [G4L] | 2.14
YGGGLVGGFGGGFAGGFVDFGACD [G6V] | 2.12
YGGGLYGGFGGGFAGGFVDFGACD [G6Y] | 1
YGGGLTGGFGGGFAGGFVDFGACD [G6T] | 2.19
YGGGLLGGFGGGFAGGFVDFGACD [G6L] | 2.86
YGGGLAGGFGGGFAGGFVDFGACD [G6A] | 2.4
YGGGLEGGFGGGFAGGFVDFGACD [G6E] | 2.26
YGGGLGGGFGGGFAGGFVDHGACD [F20H] | 2.69
YGGGLGGGFGGGFAGGFVDNGACD [F20N] | 2.31
YGGGLGGGFGGGFAGGFVDLGACD [F20L] | 1.56
YGGGLGGGFGGGFAGGFVDIGACD [F20I] | 1.27
YGGGLGGGFGGGFAGGFVDSGACD [F20S] | 1.82
YGGGLGGGFGGGFAGGFVDRGACD [F20R] | 1.78
YGGGLGGGFGGGFAGGFVDEGACD [F20E] | 2.18
YGGGLGGGFGGGFAGGFVDFGAYD [C23Y] | 1.6
YGGGLGGGFGGGFAGGFVDFGAHD [C23H] | 2.2
YGGGLGGGFGGGFAGGFVDFGAVD [C23V] | 1.22
YGGGLGGGFGGGFAGGFVDFGARD [C23R] | 2.79
YGGGLGGGFGGGFAGGFVDFGAWD [C23W] | 1.84

Variant | protein stability index
YGGGLGGIFGGGFAGGFVDFGACD [G8I] | 2.44
YGGGLGGGFGTGFAGGFVDFGACD [G11T] | 1.84
YGGGLGGGFGSGFAGGFVDFGACD [G11S] | 1.92
YGGGLGGGFGIGFAGGFVDFGACD [G11I] | 3.54
YGGGLGGGFGPGFAGGFVDFGACD [G11P] | 2.25
YGGGLGGGFSGGFAGGFVDFGACD [G10S] | 2.15
YGGGLGGGFRGGFAGGFVDFGACD [G10R] | 1.91
YGGGLGGGFEGGFAGGFVDFGACD [G10E] | 1.96
YGGGLGGGFMGGFAGGFVDFGACD [G10M] | 3.61
YGGGLGGGFWGGFAGGFVDFGACD [G10W] | 3.23
YGGGLGGGFGGGFAGVFVDFGACD [G16V] | 1.87
YGGGLGGGFGGGFAGKFVDFGACD [G16K] | 1.53
YGGGLGGGFGGNFAGGFVDFGACD [G12N] | 1.04
YGGGLGGGFGGVFAGGFVDFGACD [G12V] | 2.42
YGGGLGGGFGGTFAGGFVDFGACD [G12T] | 2.68
YGGGLGGGFGGYFAGGFVDFGACD [G12Y] | 3.95
YGGGLGGGIGGGFAGGFVDFGACD [F9I] | 1.49
YGGGLGGGHGGGFAGGFVDFGACD [F9H] | 2.5
YGGGLGGGFGGGFAGGHVDFGACD [F17H] | 2.06
YGGGLGGGFGGGFAGGSVDFGACD [F17S] | 1.89
YGGGLGGGFGGGFAGGRVDFGACD [F17R] | 1.57
YGGGLGGGFGGGFAGGVVDFGACD [F17V] | 2.37
YGGGLGGGFGGGFAGGAVDFGACD [F17A] | 2.07
YGGGLGGGFGGGFAGGGVDFGACD [F17G] | 1.68

Variant | protein stability index
YGGGLGGGFGGGFAGGIVDFGACD [F17I] | 1.23
PGGGLGGGFGGGFAGGFVDFGACD [Y1P] | 2.75
CGGGLGGGFGGGFAGGFVDFGACD [Y1C] | 1.52
IGGGLGGGFGGGFAGGFVDFGACD [Y1I] | 2.54
YGGGMGGGFGGGFAGGFVDFGACD [L5M] | 1.93
YGGGVGGGFGGGFAGGFVDFGACD [L5V] | 2.73
YGGGNGGGFGGGFAGGFVDFGACD [L5N] | 1.84
YGGGPGGGFGGGFAGGFVDFGACD [L5P] | 1.95
YGGGLGGGFGGGFAGGFVDFGACW [D24W] | 3.82
YGGGLGGGFGGGFAGGFVDFGACP [D24P] | 1.85
YGGGLGGGFGGGFAGGFVDFGACF [D24F] | 2.17
YVGGLGGGFGGGFAGGFVDFGACD [G2V] | 3.25
YGGGLGGGFGGGFAGGFVDFGWCD [A22W] | 1.75
YGGGLGGGFGGGFAGGFVDFGLCD [A22L] | 1.2
YGGGLGGGFGGGFAGGFVDFGSCD [A22S] | 1.2
YGGGLGGGFGGGFAGGFVDFGCCD [A22C] | 1.9
YGGGLGGGFGGGFAGGFVDFGICD [A22I] | 1.33
YGGGLGGGFGGGFAGGFVDFGFCD [A22F] | 2.1
YGGGLGTGFGGGFAGGFVDFGACD [G7T] | 1.49
YGGGLGGGFGGGFAKGFVDFGACD [G15K] | 1.18
YGGGLGGGFGGGFAWGFVDFGACD [G15W] | 1.58
YGGGLGGGFGGGFADGFVDFGACD [G15D] | 2.03
YGAGLGGGFGGGFAGGFVDFGACD [G3A] | 1.77
YGHGLGGGFGGGFAGGFVDFGACD [G3H] | 1.9

Variant | protein stability index
YGVGLGGGFGGGFAGGFVDFGACD [G3V] | 2.48
YGQGLGGGFGGGFAGGFVDFGACD [G3Q] | 2.5
YGGGLGGGFGGGFAGGFRDFGACD [V18R] | 2.95
YGGGLGGGFGGGFAGGFCDFGACD [V18C] | 1.38
YGGGLGGGFGGGFAGGFEDFGACD [V18E] | 1.78
YGGGLGGGFGGGFAGGFPDFGACD [V18P] | 1.96
YGGGLGGGFGGGFAGGFHDFGACD [V18H] | 2.44
YGGGLGGGFGGGTAGGFVDFGACD [F13T] | 2.07
YGGGLGGGFGGGNAGGFVDFGACD [F13N] | 1.79
YGGGLGGGFGGGHAGGFVDFGACD [F13H] | 2.44
YGGGLGGGFGGGFAGGFVDFAACD [G21A] | 2.25
YGGGLGGGFGGGFAGGFVDFWACD [G21W] | 1.99
YGGGLGGGFGGGFAGGFVDFCACD [G21C] | 1
YGGGLGGGFGGGFAGGFVDFIACD [G21I] | 1.99
YGGGLGGGFGGGFAGGFVDFKACD [G21K] | 1.93
YGGGLGGGFGGGFAGGFVDFDACD [G21D] | 1.92
YGGGLGGGFGGGFAGGFVQFGACD [D19Q] | 1.41
YGGGLGGGFGGGFAGGFVWFGACD [D19W] | 3.27
YGGGLGGGFGGGFAGGFVAFGACD [D19A] | 3.27
YGGGLGGGFGGGFYGGFVDFGACD [A14Y] | 2.65
YGGGLGGGFGGGFQGGFVDFGACD [A14Q] | 3.11
YGGGLGGGFGGGFEGGFVDFGACD [A14E] | 1.81
